{"source": "the DeepSol protein solubility set", "data": [{"assay": "soluble on expression in E. coli; label from the status in PepcDB or PDB records", "values": [{"sequence": "MENQAALCVLLSDRANTHAHIFVHPHFLSFTLTKSCFCCGNLIYWFVTLYLNFRSRKKSEKMRSRSGSGVRLDRILFMVEQTICSHQNPITALFANQKDFPGHAWVRDNVYIAQALWALYRAYMKCADFDEDLTKAKELGFTCVKMMQSILECLMRQAEKVELFKKYQRPLDALHSKFAVGTKGTVCGDADWGHLQMDAISLYLLTLAQITASGLQVVRNFDEVAFIQNLVYYIETGYRTPDYGVWERGDKTNQGIRELNASSIGMVKAALQALNDVGDLFVDGSRGSVVHVLPDEIEQCSAVLSSMLPRESFSKETDAALLGIISYPAFCVEDPELVSQTRETITQRLLGKYGCRRFMRDGYKTVLEDASRLYYNKSELQQFEDIECEWPIFLCYLILDAMYSKDDDAVEAYWRQLESVLVLSDKGFRLVPELYVVLKEHVSAEKAHPGTQDRVPGGATPFLWAQSLYVIICLLYEGFLLPAELDPLSRRLSVYEKRPPCEVQVTVLAESLDVQRELRAHDIHVQCVDEIDPVFTILPASALGQLLAKIGESKKLNLSGRPLDRPIGLLSTSRLYQIGNKFVIFTPQFMDSRRSHLMYDIRILTDEWSSELQYIYASWNSVSISGRPLVVLVITQGMLSTEGLSHFSNIHLNRHMKSTVIGAIKKINTGYLSGARVVMKDLSDFFRTTAVSKMEFRDKSAEDTLRSVAAEKVQFTLLTEDATEAKNEKITTPRGPRTLRRGESVKDRSAYTAVHKASMRHRSIALDSNDADLMKLRLAYKSRPRDLQDMDSTYQSPPPTQTPLGLVKEHSSGELRQQLLKTTRRGAENETTHRDLTAEQMNEMKADDLLDLVNETTVLEEQISIVHCLWMKFGPDYDTELGCQHITVRMLMEEVHTKACEAREWALVRLTAGLLKKQLEEPQQSCYSSFVSPFELKSMIFSLLSGRLLEEYAEDGIHYSDTIRETRTGIGSFRRQIEERKSLRKSTRSVGGLEIPKEEDEDEEADEDDFQFGIWLRHRRIDGALNRVPNGFYAILWDTVHKMPHGVKINDTVLHWGLTQEMTRKEIKFALESEEALNRIAEPEYRELVVETLWLLGRLEKLVLLEQPNIPRDRPLDVDHILHVANQIFVDHNKHLETIVMECCASSNPNNTRCDGARNICKHFYDSAPAGEYGTSHYIIRALMQLYS", "soluble on expression in E. coli": "not soluble"}, {"sequence": "MSYKEGDVLVTNGEQSPGYKIVEIKGLVVGITVRSRGLGKNIIASLRSLLGGEIKEYVELAEQARLQALQRMVDNAKALGANAVVNVRFDSNELSEAMDEIIAYGTAVVVEKSS", "soluble on expression in E. coli": "soluble"}, {"sequence": "MSLPNNEKITRLQQQEKNTQQTVTVAKNKAANLAKFQKEVEATTLDFETQAALLPKEKEIPKLLKDISALGSNTGLDFISFKPLANRPKDFYAEIPISIQVRGPYHNVGSFFDQINKLERIVSVKSVKMTSPKKEDGEMLLTSNCQLVTYQFTNIELPKEGHHHHHH", "soluble on expression in E. coli": "soluble"}, {"sequence": "MSLSNSPLPPNATPMERALAAVTERLEAIPLPYPDLWNPDTCPAGHLPWLAWTLSVDDWKADWSDAVKRSRLRSAMAIQRRKGTANSVRMVVASFGGAVTIREWWQQQPRGQPHTFELTLTLNGSDGRAASARFVDEVIAEVERTKPVRSHFGFVQGLQATGNVSLVTGVRIINYRRLSMMAQGEGHHHHHH", "soluble on expression in E. coli": "not soluble"}, {"sequence": "IIGQVDEISTTDLIEEEENAVLITAEGYAKRMSLEEFRVQSRGGVGVIGASVSPGDEIAVFRICNSTDRLLIFTNTGRAFWINAYEIPKMDRTARGTTLKRLIRLENGEKVVSALGVKDF", "soluble on expression in E. coli": "soluble"}, {"sequence": "SFKADLGTIGIQLHTTYSRRIRKVKVMDNRKEPPFFNEDNVGPFYFKLPFYDPMELFIETLTGTCFELRVSPFEAVISVKGKIQRLEGIPICQQHLIWNNMELEDDYCLNDYNISEGCTLKLVLAMRGGPISTRKVPVEDPLRELAEYMDSSRDEVWEKTSCNKQVTFLVYREGDQLNFFRVVDRGDGTLTPLSESLSGGSVYNLYTDEDEETEPSPSGQQIIENSITMNKMKLLKAKMENMNLSKKVKPLAVRQAFL", "soluble on expression in E. coli": "soluble"}, {"sequence": "MPTPEKRLRLMQLASNSLPVGGYSWSQGLEWAVEAGWVEDSAAFEHWQQLQMEQSFFAVDLPLLARLYRACEAGDPDSAGRWTAYLLACRETRELRDEERNRGAAFTRLLVDWQPDCPAEWRKLCQQSQLTGMAWLGVRWQISVSDLALSLGYSWIESAVMAGVRLVPYGQLAAQQLIMRLCARYAANMDSALATPDHAIGSATPLASIASARHETQYSRLFRS", "soluble on expression in E. coli": "not soluble"}, {"sequence": "MSLKISSMFTPIRIGSMTVPNRFVVPPMGNNFANTDGTLSETSKAYYLERALGGFGLITIESSVVDKKAKGGPRKPCLYDDSTIDSFKNVIDACHDAGSKVSIQLQHAGSEGNEKVAGHPLKAASAIPASNGRNTPLAITTEEIYELIESYGDAALRAQKAGADAVEVHCAHGYLVSSFISQRTNKRVDEFGGCFENRMRLPRLIIENIRKKVGNSLAILCRINSTDDVPGGIDVHDSSVIAAYLEDCGIDGLHVSRSIHIHDEYMWAPTTLHAGFSAELVTEIKKAVSIPVITVGRYTEPQFAELMVRQGRCDLVAFGRQSLADPEMPNKAKNGKLDEMIPCIACLQGCVPNMFQGKPIACLANPILGHEAELKPAEISKEVLVVGGGVGGMLAAWVCAKRGHNVTLVEKSEVLGGQMRLAAYPPGKGDITNLVRSYISKCNQYGVKICTNTEATVELIKEKSPDVVIIATGATPLVLPIPGINDSGLIHAVDLLDGKKSCGKKVLVVGGGMVGCEVAAFLGEQEHEVTVIELREEVGADVISEHRKFLMNDFENYNIHTITGAKVSKFYDDGVDYLLTDGTEHDLKGFDSVVLAMGSRNYDPLSEVIKEVVKETYIVGDAVKARRALDATKEAFEVALNIEGHHHHHH", "soluble on expression in E. coli": "soluble"}, {"sequence": "MKVPHVIAELVSEFSGFQHTPDFKASRSTGNFEEGSEEGTSGSHKPEEHHHKEHHGHSLYFGKHSGKKHLPPVVENDGDTHSNHSDVSGSGSSLKEKKHHGLTAHFKDLFHIGHHHHHHGEHPHSKQNSGASTPARKNSTGSECPCSKQEQCHKHSINITVGADEVPTVLATPPNEQNILHAHFIKNQSPCISRVVSSSSLKEKLHKIKRTTSSDSDTDFPEKKCSVASYRVVTH", "soluble on expression in E. coli": "not soluble"}, {"sequence": "MANIEIRQESPSAFYIKVHETDNVAIIVNDHGLKAGTRFPDGLELTEHIPQGHKVALTDIPAHGEIIRYGEVIGYAVRDIPRGSWIDESLVELPKAPPLNTLPLATKVPEPLPPLEGYTFEGYRNADGSVGTKNLLGITTSVHCVAGVVDYVVKVIERDLLPKYPNVDGVVGLNHLYGCGVAINAPAAVVPIRTIHNIALNPNFGGEVMVIGLGCEKLQPERLLEGTEDVPAIAVESASIVRLQDEQHVGFKSMVDDILRVAERHLTKLNQRQRETCPASELVVGMQCGGSDAFSGVTANPAVGYASDLLVRCGATVMFSEVTEVRDAIHLLTPRAINEAVGKRLLDEMAWYDNYLDMGKTDRSANPSPGNKKGGLANVVEKALGSIAKSGKSAIVEVLSPGQRPTKRGLIYAATPASDFVCGTQQVASGITVQVFTTGRGTPYGLMAVPVIKMATRTELANRWYDLMDINAGTIATGEETIEDVGWKLFHFILDVASGRKKTFSDQWGLHNQLAVFNPAPVT", "soluble on expression in E. coli": "not soluble"}, {"sequence": "DSKDTRQFVKSIAKDAHRIGQDNDIYASVMIAQAILESDSGRSALAKSPNHNLFGIKGAFEGNSVPFNTLEADGNKLYSINAGFRKYPSTKESLKDYSDLIKNGIDGNRTIYKPTWKSEADSYKDATSHLSKTYATDPNYAKKLNSIIKHYQL", "soluble on expression in E. coli": "not soluble"}, {"sequence": "MLSAWFSGKYSVLKDENGYVFLDRDGDRFRHILNYLRCGTVHIGEDIRLLGEILEEAEYFGLQSLAQQLKEALLQCRVKQEEKESSVCGRMNNEDNLFHPMFEPLDGFSSSQTSQGEPLLTLLPSSQEFRLDEDF", "soluble on expression in E. coli": "soluble"}, {"sequence": "MPNAGELASLMEENAMPKVVVRNFAISLDGYGAGPDQSLQNPLGVKGEELHQWAFKTRTFHRMFGKEGGSTGTDENFSEKSFENIGAWVLGRNMFGPVRGAWPDESWKGWWGEEPPYHVPVFVLTHHARPSFTMKGGTEFHFVTDGIEAALDRALTAANGKDVRIGGGVSTIRQYMAAGMIDELHLALAPVFLGKGEQLFEGLDLPALGYRCTGTVAGEGATHLIIEKV", "soluble on expression in E. coli": "not soluble"}, {"sequence": "MGSDKIHHHHHHMEFMKQLGSCCQYCAYPLSDDTYLVCGQCVRKRPSFDSAYIAYRFEEPLRSLIHQFKYHNGLYLASFLKQLLLNALPKNALKPDCLIPVPMHPKRLKRRGFNQAGVLTRLLARQLNIPYDLYYCQKIINTASQANLDGEQRRKNLRHAFYVSAVTYEHVMIVDDLLTTGSTANEMAHTLKNAGVKRVDICCCARAVTKN", "soluble on expression in E. coli": "not soluble"}, {"sequence": "MSFSRRPKVTKSDIVDQIALNIKNNNLKLEKKYIRLVIDAFFEELKSNLCSNNVIEFRSFGTFEVRKRKGRLNARNPQTGEYVKVLDHHVAYFRPGKDLKERVWGIKG", "soluble on expression in E. coli": "soluble"}, {"sequence": "MRLLYVIKKENPMDQMPNCPKCQSEYVYHDSINFVCPDCGNEWDNNEIQESDDDQLIVKDSNGNLLAEGDNVLLIKDLKLKGSSEVLKKGTKFKNIRLVNGDHNVDCGKIMLKSEFLKKALEHHHHHH", "soluble on expression in E. coli": "soluble"}, {"sequence": "MGSDKIHHHHHHMMSAVADIQECRDFLAAHPQVKFVEVFFTSMTGVPRGKRLRVHELEAIYEYGRFLPGSVLVVDTNGADCEDTGLVWEDGDADRRARPVPGTLTLAPWLGPDVAQVMLSLYELDGTPNDLDPRHVLQRVLDRYAADGLTPVAACELEYYLVDLQRGPNGELLPAKSLQTGLRPTGIQVYGLPELEAHAPFLRELWDVADTLGVPLEGAISEFAPAQVELTLKHKPDALRAADDAVLYKRAAKGVALRHGMEATFMAKPWSDRAGNGFHVHLSVNDAAGNNLCASEDIEGSDLLKHAIGGMKVLLGEGMAILAPNANSYRRFKANSYAPVAPTWGVNNRTVSLRVPAGPPKTRHVEHRVAGADGNPYLVLAVLLASAHHGITNKIDPGPAVIGDGYAAAAKENIRLPNNWFAAVDLFEQSSVLRDYLGDRFVDMFVSVKRTEQARFFEVVTELDFDWYLRNA", "soluble on expression in E. coli": "not soluble"}, {"sequence": "MGRKWANIVAKKTAKDGATSKIYAKFGVEIYAAAKQGEPDPELNTSLKFVIERAKQAQVPKHVIDKAIDKAKGGGDETFVQGRYEGFGPNGSMIIAETLTSNVNRTIANVRTIFNKKGGNIGAAGSVSYMFDNTGVIVFKGTDPDHIFEILLEAEVDVRDVTEEEGNIVIYTEPTDLHKGIAALKAAGITEFSTTELEMIAQSEVELSPEDLEIFEGLVDALEDDDDVQKVYHNVANL", "soluble on expression in E. coli": "soluble"}, {"sequence": "MFEHLCNIDDMTIIGQRSNPLNEDWNEWTLVICTKCKKVYEWQHHSEEQMHGGDLAITAIATDDYLHHKYNINEQDIPQILNKKKKIRRYDRYKKIYLEDYV", "soluble on expression in E. coli": "not soluble"}, {"sequence": "MSLSIFEHFQARYEAAKDEELSIQDFLALCKENKSAYANAAERLLLAIGEPEMIDTSKHSRLSRIFSNRVIARYKTFEDFYGMEEAIEQIVAYLKHAAQGLEERKQILYLLGPVGGGKSSLAEKLKALMQQMPIYVLSANGQRSPVNDHPFCLFDVNEDGELLKQEYGIDRRYLRSIMSPWAAKRLHEFGGDITKFKVVKVRPSILDQIAVAKTEPGDENNQDISSLVGKVDIRKLEHFSQDDPDAYSYSGALCRANQGLMEFVEMFKAPIKVLHPLLTATQEGNYNGTEGLSALPFDGMILAHSNESEWQTFRNNKNNEAFLDRVYIVKVPYCLRVSEEVKIYQKLLDHSELSKAPCAPSTLDLLAQFSVLSRLKVPENSSLFSKMRVYDGETLKDTDPKAKSYQEYRDYAGVDEGMSGLSTRFAFKILSRVFNFDHSEVAANPVHLFYVIEQQVEREGHHHHHH", "soluble on expression in E. coli": "not soluble"}]}]}
